Results: doi:10.1101/2024.11.26.625551 (bioRxiv, 2024)

What was measured:
crystal structure = biological target: the molecule itself; experiment: crystal structure
[1] = biological target: GST-tagged mouse Cavin1 HR1 domain (Mus musculus, UniProt O54724); experiment: pull-down
[2] = biological target: mouse Cavin1 HR1 N-terminal fragment mC1-HR1(45-103) (Mus musculus, UniProt O54724); experiment: ITC
[3] = biological target: mouse Cavin1 HR1 domain (His-Ub construct) (Mus musculus (Mouse)., UniProt O54724); experiment: ITC
[4] = biological target: His-MBP full-length mouse Cavin1 (Mus musculus (Mouse)., UniProt O54724); experiment: ITC
His-MBP full-length mouse Cavin1, sequence (O54724 whole entry, the tested form may be a part): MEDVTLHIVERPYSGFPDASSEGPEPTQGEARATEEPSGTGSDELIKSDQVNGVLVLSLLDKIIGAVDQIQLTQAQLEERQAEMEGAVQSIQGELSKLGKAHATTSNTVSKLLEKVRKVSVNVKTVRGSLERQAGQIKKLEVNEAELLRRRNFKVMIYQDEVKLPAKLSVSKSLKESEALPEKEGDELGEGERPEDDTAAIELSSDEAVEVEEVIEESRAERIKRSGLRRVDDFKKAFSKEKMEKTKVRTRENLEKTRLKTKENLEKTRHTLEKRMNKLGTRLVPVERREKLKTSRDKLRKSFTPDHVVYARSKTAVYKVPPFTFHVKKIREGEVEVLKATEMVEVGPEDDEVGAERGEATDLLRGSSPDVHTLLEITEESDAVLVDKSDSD

[5] = biological target: zebrafish Cavin4a HR1 domain (Danio rerio, UniProt A1L260); experiment: ITC
zebrafish Cavin4a HR1 domain, sequence (A1L260 whole entry, looked up, the tested form may be a part): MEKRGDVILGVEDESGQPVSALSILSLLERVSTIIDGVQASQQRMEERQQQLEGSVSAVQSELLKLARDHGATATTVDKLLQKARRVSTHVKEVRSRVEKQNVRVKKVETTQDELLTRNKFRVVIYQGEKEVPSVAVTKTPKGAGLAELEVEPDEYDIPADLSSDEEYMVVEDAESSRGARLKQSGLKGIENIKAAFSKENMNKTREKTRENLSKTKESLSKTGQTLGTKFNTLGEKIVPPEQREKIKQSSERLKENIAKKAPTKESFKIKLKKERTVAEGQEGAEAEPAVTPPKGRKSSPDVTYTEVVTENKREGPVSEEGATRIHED

[6] = biological target: zebrafish Cavin4b HR1 domain (Danio rerio, UniProt A0A8M1N3J3); experiment: ITC
endogenous Cavin1 (HeLa) = endogenous Cavin1 (HeLa) (Homo sapiens (HeLa), UniProt Q6NZI2); experiment: co-IP
endogenous Cavin1 (HeLa), sequence (Q6NZI2 whole entry): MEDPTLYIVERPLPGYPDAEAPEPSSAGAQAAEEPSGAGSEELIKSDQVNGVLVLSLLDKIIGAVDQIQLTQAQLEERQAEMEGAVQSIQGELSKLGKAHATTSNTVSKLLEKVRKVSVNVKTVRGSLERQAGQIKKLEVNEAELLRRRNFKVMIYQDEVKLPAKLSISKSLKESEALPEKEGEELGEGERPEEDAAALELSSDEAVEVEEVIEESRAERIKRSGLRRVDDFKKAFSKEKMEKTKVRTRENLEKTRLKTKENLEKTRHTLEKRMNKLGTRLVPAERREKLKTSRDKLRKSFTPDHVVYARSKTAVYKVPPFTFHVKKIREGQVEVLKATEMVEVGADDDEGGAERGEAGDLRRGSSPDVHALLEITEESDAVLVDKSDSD

endogenous CAV1 (HeLa) = endogenous CAV1 (HeLa) (Homo sapiens (HeLa), UniProt Q03135); experiment: co-IP
endogenous CAV1 (HeLa), sequence (Q03135 whole entry): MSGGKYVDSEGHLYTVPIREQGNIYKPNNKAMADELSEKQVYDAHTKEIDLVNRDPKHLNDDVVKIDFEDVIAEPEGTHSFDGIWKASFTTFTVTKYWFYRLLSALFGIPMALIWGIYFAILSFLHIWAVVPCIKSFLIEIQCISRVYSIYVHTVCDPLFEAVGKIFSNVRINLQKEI

B1: mouse Cavin1 HR1 domain (as crystallised with NbB7) (domain or fragment, UniProt O54724 45-155, looked up)
chain: LIKSDQVNGVLVLSLLDKIIGAVDQIQLTQAQLEERQAEMEGAVQSIQGELSKLGKAHATTSNTVSKLLEKVRKVSVNVKTVRGSLERQAGQIKKLEVNEAELLRRRNFKV
- stoichiometry N (crystal structure): 3

B2: nanobody NbA12 (VHH)
VHH: QVQLQESGGGLVQAGGSLRLSCAASGFTFDDYAIGWFRQAPGKEREGVSCITSSDGSTYYADSVKGRFTISSDNAKNTVYLQMNSLKPEDTAVYYCAAESWPPLCHYSGMDYWGKGTQVTVSS
- binding result [1]: binds
- binding result [2]: binds
- binding result [3]: binds
- binding result [4]: binds
- binding result [5]: no binding
- binding result [6]: no binding

B3: NbB7-GFP (VHH)
VHH: QVQLQESGGGLVQAGGSLRLSCAVSGIRVNVNAMYWYRQAPGKQRELVAIITTFGSTNYADSAKGRFTISRDNTKNTVYLQMDNLKPEDTAVYYCNAPQFTDRYWGQGTQVTVSS
- binding result (endogenous Cavin1 (HeLa)): binds
- binding result (endogenous CAV1 (HeLa)): binds

B4: nanobody NbB7 (VHH)
VHH: B3 VHH
- Kd [3]: 0.52 µM
- binding result [6]: no binding
